# Results from publication PMC3979344 (Virology, 2013).
# T1: nectin-1(346t), soluble nectin-1 (UniProt Q15223 31-346)
# T1 sequence (looked up): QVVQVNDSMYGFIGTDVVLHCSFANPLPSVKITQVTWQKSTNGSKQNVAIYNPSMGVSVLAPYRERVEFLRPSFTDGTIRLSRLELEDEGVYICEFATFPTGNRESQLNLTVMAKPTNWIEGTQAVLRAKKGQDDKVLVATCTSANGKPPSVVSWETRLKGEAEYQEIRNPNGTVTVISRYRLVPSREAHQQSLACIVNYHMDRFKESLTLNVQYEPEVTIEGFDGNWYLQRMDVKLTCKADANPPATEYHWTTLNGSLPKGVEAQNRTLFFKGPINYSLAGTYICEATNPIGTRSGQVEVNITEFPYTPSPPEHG
# Columns and labels:
# [1] = target: HVEM(200t), soluble herpesvirus entry mediator (UniProt Q92956); assay: SPR
# [2] = target: T1, nectin-1(346t), soluble nectin-1; assay: SPR
Molecule,Kd [1],Kd [2]
gD(3C-38C)306t (from UniProt Q69091 26-331) (domain or fragment),2.39 µM,
"gD(306t), soluble ectodomain of HSV-1 glycoprotein D (domain or fragment) KYALADASLKMADPNRFRGKDLPVLDQLTDPPGVRRVYHIQAGLPDPFQPPSLPITVYYAVLERACRSVLLNAPSEAPQIVRGASEDVRKQPYNLTIAWFRMGGNCAIPITVMEYTECSYNKSLGACPIRTQPRWNYYDSFSAVSEDNLGFLMHAPAFETAGTYLRLVKINDWTEITQFILEHRAKGSCKYALPLRIPPSACLSPQAYQQGVTVDSIGMLPRFIPENQRTVAVYSLKIAGWHGPKAPYTSTLLPPELSETPNATQPELAPEDPEDSALLEDPVGTVAPQIPPNWHIPSIQDAATPY",,1.74 µM
gD(285t) (domain or fragment) KYALADASLKMADPNRFRGKDLPVLDQLTDPPGVRRVYHIQAGLPDPFQPPSLPITVYYAVLERACRSVLLNAPSEAPQIVRGASEDVRKQPYNLTIAWFRMGGNCAIPITVMEYTECSYNKSLGACPIRTQPRWNYYDSFSAVSEDNLGFLMHAPAFETAGTYLRLVKINDWTEITQFILEHRAKGSCKYALPLRIPPSACLSPQAYQQGVTVDSIGMLPRFIPENQRTVAVYSLKIAGWHGPKAPYTSTLLPPELSETPNATQPELAPEDPEDSALLEDPVGT,,0.0713 µM
gD(23-285t) (domain or fragment) PVLDQLTDPPGVRRVYHIQAGLPDPFQPPSLPITVYYAVLERACRSVLLNAPSEAPQIVRGASEDVRKQPYNLTIAWFRMGGNCAIPITVMEYTECSYNKSLGACPIRTQPRWNYYDSFSAVSEDNLGFLMHAPAFETAGTYLRLVKINDWTEITQFILEHRAKGSCKYALPLRIPPSACLSPQAYQQGVTVDSIGMLPRFIPENQRTVAVYSLKIAGWHGPKAPYTSTLLPPELSETPNATQPELAPEDPEDSALLEDPVGT,,0.0657 µM
